Assay results: article PMC8002388

Legend:
[1] = target: light-activated rhodopsin in rod outer segments (ROS) (UniProt P02699)
[2] = target: light-activated rhodopsin in rod outer segments (ROS) (UniProt P02699); remark: listed apart in the source

Chain of UniProt P02699 (P02699 whole entry): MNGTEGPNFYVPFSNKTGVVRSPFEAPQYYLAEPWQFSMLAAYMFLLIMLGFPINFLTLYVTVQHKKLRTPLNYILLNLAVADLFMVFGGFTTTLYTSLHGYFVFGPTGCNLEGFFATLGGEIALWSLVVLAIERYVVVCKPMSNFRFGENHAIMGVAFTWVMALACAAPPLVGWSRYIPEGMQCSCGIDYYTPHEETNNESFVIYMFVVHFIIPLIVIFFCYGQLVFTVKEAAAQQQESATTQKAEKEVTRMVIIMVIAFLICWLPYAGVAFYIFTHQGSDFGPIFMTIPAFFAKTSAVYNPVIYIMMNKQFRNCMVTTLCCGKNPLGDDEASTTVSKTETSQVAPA

Row | Substance | normalized Vmax of rhodopsin (ROS) phosphorylation when [ATP] is varied [1] [A.U.] | Km for rhodopsin, phosphorylation of light-activated rhodopsin in ROS (50 nM-5 µM) by 20 nM GRK2 with 150 nM human Gβ1γ2 and 5 µM ATP [2] [nM]
1 | C-terminally H6-tagged bovine GRK2 E532A (S670A background) (from UniProt P21146 1-689) (enzyme) | 0.8 | 140
2 | C-terminally H6-tagged bovine GRK2 L33N (S670A background) (from UniProt P21146 1-689) (enzyme) | 1 | 360
3 | C-terminally H6-tagged bovine GRK2 L536N (S670A background) (from UniProt P21146 1-689) (enzyme) | 1.2 | 180

Continued, values first:

Row | normalized Vmax of rhodopsin (ROS) phosphorylation when [ATP] is varied [1] [A.U.] | Km for rhodopsin, phosphorylation of light-activated rhodopsin in ROS (50 nM-5 µM) by 20 nM GRK2 with 150 nM human Gβ1γ2 and 5 µM ATP [2] [nM] | Substance
4 | 0.9 | 130 | C-terminally H6-tagged bovine GRK2 E36A (S670A background) (from UniProt P21146 1-689) (enzyme)
5 | 0.8 | 170 | C-terminally H6-tagged bovine GRK2 L547N (S670A background) (from UniProt P21146 1-689) (enzyme)
6 | 1.3 | 240 | C-terminally H6-tagged bovine GRK2, wild type (S670A background) (from UniProt P21146 1-689) (enzyme)
